# Test results reported in the RNAGym collection of RNA variant scans (doi:10.1073/pnas.2313332121).
# B1: TPR t1 (parent)
# chain: GACCAAUCUGCCCUCAGAGCUCGAGAACAUCUUCGGAUGCAGAGGAGGCAGGCUUCGGUGGCGCGAUAGCGCCAACGUCCUCAACCUCCAAUGCAUCCCACCACAUGAUGAUGCCUGAAGAGCCUUGGUUUUUUG
# Variants of: B1
# Assay: polymerase ribozyme fitness, log enrichment relative to wild type (log ratio); higher = more active; in vitro selection for triplet polymerase activity
# Method in brief: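 Mutant libraries were PCR-built and transcribed for each subunit of a heterodimeric triplet polymerase ribozyme and selected for one round in triplicate at −7 °C, frozen, before gel excision of extended constructs and streptavidin-bead capture. Input and output libraries were Illumina-sequenced, keeping genotypes with ≥10 input reads and ≥1 read per output. Fitness is a logarithmic ratio of genotype to wild-type enrichment, in base 2, using inverse-variance-weighted replicate averages.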
row,Variant,polymerase ribozyme fitness (log ratio)
1,GACCAAUCUGCCCUCAGAGCUCGAGAACAUCUUCGGGUGCAGAGGAGGCAGGCUUCGGUGGCGCGAUAGCGCCAACGUCCUCAACCUCCAAUGCAUCCCACCACAUGAUGAUGACUGAAGAGCCUUGGUUUUUUG,-1.28
2,GACCAAUCUGCCCUCAGAGCUCGAGAACAUCUUCGGGUGCAGAGGAGGCAGGCUUCGGUGGCGCGAUAGCGCCAACGUCCUCAACCUACAAUGCAUCCCACCACAUGAUGAUUCCUGAAGAGCCUUGGUUUUUUG,-5.31
3,GACCAAUCUGCCCUCAGAGCUCGAGAACAUCUUCGGGUGCAGAGGAGGCAGGCUUCGGUGGCGCGAUAGCGCCAACGUCCUCAACCUCCAAUGCAUCCCACCACAUGAUGAUGCCUCAAGAGCCUUGGUUUUUUG,-2.52
4,GACCAAUCUGCCCUCAGAGCUCGAGAACAUCUUCGGGUGCAGAGGAGGCAGGCUUCGGUUGCGCGAUAGCGCCAACGUCAUCAACCUCCAAUGCAUCCCACCACAUGAUGAUGCCUGAAGAGCCUUGGUUUUUUG,-5.24
5,GACCAAUCUGCCCUCAGAGCUCGAGAACAUCUUCGGGUGCAGAGGAGGCAGGCUUCGGUAGCGCGAUAGCGCCAACGUCCUCAACCUCCAAUGCAUCCCACUACAUGAUGAUGCCUGAAGAGCCUUGGUUUUUUG,-3.61
6,GACCAAUCUGCCCUCAGAGCUCGAGAACAUCUUCGGGUGCAGAGGAGGCAGACUUCGGUGGCGCGAUAGCGCCAACGUCCUCAACCUCCAAUGCAUCCCACCACAUGAUGAUGCCUGAAGAGCCUUGGUUUUUUG,-1.1
7,GACCAAUCUGCCCUCAGAGCUCGAGAACAUCUUCGGGUGCAGAGGAGGCAGGCUUCGGUGGCGCGAUAGCGCCAACGUCCUCAACCUCCAAUGGAUCCCACCACAUGAUGAUGCCUGAAGAGCCUUGGUUUUUUG,-2.1
8,GACCAAUCUGCCCUCAGAGCUCGAGAACAUCUUCGGGUGCAGAGGAGGCAGGCUUCGGUGGCGCGAUAGCGCCAACGUCCUCAACCUCCAAUGCAUCCCACCAGAUGAUGAUGCCUGAAGAGCCUUGGUUUUUUG,-6.69
9,GACCAAUCUGCCCUCAGAGCUCGAGAACAUCUUCGGGUGCAGAGGAGGCAGGCUUCGGUGGCGCGAUAGCGCCAACGUCCUCAACCUCCAAUGCAUCCCACCACAUGAUGAUCCCUGAAGAGCCUUGGUUUUUUA,-2.17
10,GACCAAUCUGCCCUCAGAGCUCGAGAACAUCUUCGGGUGCAGAGGAGGCAGGCUACGGUGGCGCGAUAGCGCUAACGUCCUCCACCUCCUAUGCAUCCCACCACAUGAUGAUGCCUGAAGAGCCAUGGUUUUUUG,-2.61
11,GACCAAUCUGCCCUCAGAGCUCGAGAACAUCUUCGGUUGCAGCGGAGGCAGGCUUCGGUGGCGCGAUAGCUCCAACGUUCUCAACCUCCAAUGCAUCCCACCACAUGAUGAAGCCGGAAGAGCCUUGGUUUUUCG,-6.04
12,GACCAAUCUGCCCUCAGAGCUCGAGAACAUCUUCGGGUGCAGAGGAGGCAGGCUUCGGUGGCGCGAUAUCGCCAACGUCCUCAACCUCCAAUGCAUCCCACCACAUGAUGAUGCCUGAAGAGCCUUGGUUUUUUG,-1.08
13,GACCAAUCUGCCCUCAGAGCUCGAGAACAUCUUCGGGUGCAGAGGAGGCAGGCUUCGGUGGCGCGAUAUCGCCAACGUCCUCAACCUCCAAUGCAUCCAACCACAUGAUGAUGACUGAAGAGCCUUGGUUUUUUG,-3.09
14,GACCAAUCUGCCCUCAGAGCUCGAGAACAUCUUCGGGUGCAGAGGAGGCAGGCUUCGGUGGCGCGAUAGCGCCAACGUCCUCAACCUCCAAUGCAUCCCACCACAUGAUGAUGCCUGAAGAGCCUUGGUUUCUUG,-1.86
15,GACCAAUCUGCCCUCAGAGCUCGAGAACAUCUUCGGGUGCAGACGAGGCAGGCUUCGGUGGCGCGAUAGCGCCAACGUCCUCAACCUCCAAUGCAUCCCACCACAUGAUGAUGCCUGAAGAGCCUUGGUUUUUUG,-0.927
16,GACCAAUCUGCCCUCAGAGCUCGAGAACAUCUUCGGUUGCUGAGGAGGCAGGCUUCGGUGGCGCGAUAGCGCCAACGUCCUCAACCUUCAAUGCAUCCCACCACAUGAUGAUGCCUGAAGAGCCUUGGUUUUUUG,-2.75
17,GACCAAUCUGCCCUCAGAGCUCGAGAACAUCUUCGGUUGCAGCGGAGGCAGGCUUCGGUGGCGCGAUAGCGCCAACGUCCUCAACCUCCAAUGCAUCCCACCACAUGAUGAUGCCUGAAGAGCCUUGGUUUUUUG,-1.99
18,GACCAAUCUGCCCUCAGAGCUCGAGAACAUCUUCGGGUGCAAAGGAGGCAGGCUUCGGUGGCGCGAUAGCGCCAACGUGCUCAACCUCCAAUGCAUCCCACCAUAUGAUGAUGCCUGAAGAGCCUUGGUUUUUUG,-4.86
19,GACCAAUCUGCCCUCAGAGCUCGAGAACAUCUUCGGUUGCAGAGGAGGCAGGCUUCGGUGGCGCGAUAGCGCCAACGUCCUCAACCUCCAAUGCAUCCCACCACAUGAUGAUGCCUGAAGAGCCUUGGUUUUUUG,-0.355
20,GACCAAUCUGCCCUCAGAGCUCGAGAACAUCUUCGGGUGCAGACGAGGCAGGCUUCGGUGGCGCGAUAGCGGCAACGCCCUCAACCUCCAAUGCAUCCCACCACAUGAUGAUGCCUGAAGAGCCUUGGUUUUUUG,-1.05
21,GACCAAUCUGCCCUCAGAGCUCGAGAACAUCUUCGGGUGCAGAGGAGGCAGGCUUCGGUGGCGCGAUAGCGCCAACGUCCUCAACCUCAAAUGCAUCCCACAACAUGAUGAUGCCUGAAGAGCUUUGGUUUUUUG,-3.6
